Results: patent EP4435105

T1: human ASGR-1 (on CHO-S cells) (human, UniProt P07306)
T1 chain: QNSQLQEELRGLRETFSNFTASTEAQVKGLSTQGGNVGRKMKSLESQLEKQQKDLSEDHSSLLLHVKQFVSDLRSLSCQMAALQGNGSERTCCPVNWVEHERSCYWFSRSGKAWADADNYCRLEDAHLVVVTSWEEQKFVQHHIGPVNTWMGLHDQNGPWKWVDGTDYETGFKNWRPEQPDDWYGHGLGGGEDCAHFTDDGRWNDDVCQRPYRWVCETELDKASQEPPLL

B1: 22G5 (antibody, V domains shown)
VH: EVQLLESGGGLVQPGGSLRLSCAASGFTFSSYAMNWVRQAPGMGLEWVSVISRSGGYTYYADSVKGRFTISRDNSKNTLYLQMNSLRAEDTAVYYCASRLAVAGSEAFDIWGQGTLVTVSS
VL: DIQMTQSPSSLSASVGDRVTITCRASQNISSYLNWYQQKQGKAPKLLIYAASSLQNGVPSRFSGRGSGTDFTLTISSLQPEDFATYYCQQSYRTPLFTFGPGTKVDFK
B2: 4A2 (antibody, V domains shown)
VH: QVQLVQSGTEVKKPGASVKVSCKASGYTFTNYDINWVRQATGQGLEWMGWMHPNSGNTGYAQKFQGRVTLTRDTSISTAYMELSSLRSEDTAVYYCASSSGWYYFDYWGQGTLVTVSS
VL: DIVMTQSPDSLAVSLGERATINCKSSQSILHSSNNNNYLAWFQQKPGQPPKLLLYWASTRESGVPDRFSGSGSGTDFTLTISSLQPEDVAVYYCQQYYNTPVTFGPGTKVGIK
B3: 176H4 (antibody, V domains shown)
VH: QVQLVESGGGVVQPGRSLRLSCAASGFTFSSYGMHWVRQAPGKGLEWVAIIWYDGSYKYYADSVKGRFTISRDNSKNTLYLQMSSLRAEDTAVYYCARDAHDFWSGYFAYWGQGALVTVSS
VL: DIVMTQTPLSLSVTPGQPASISCKSSQSLLHGDGKTYLYWYLQKPGQPPQLLIYEVSNRFSGVPDRFSGSGSGTDFTLKISRVEAEDVGIYYCMQSIQIPWTFGQGTRVEIK
B4: 194C10 (antibody, V domains shown)
VH: QVQLQQWGAGLLKPSETLSLTCAVSGGSFRYYYWSWIRQPPGKGLEWFGEINHSGSTNYNPSLKSRVTISIDTSKNQFSLKLRSVTAADTAVYYCARDYGAFDIWGQGTMVTVSS
VL: EIVLTQSPGTLSLSPGERATLSCRASPSVNSGYLAWYQQKPGQTPRLLIFGASSRATGIPDRFSASGSGADFTLTISRLEPEDFAVYFCQQYESSPWTFGQGTKVEIK
B5: 5E5 (antibody, V domains shown)
VH: QVQLVESGGGVVQPGRSLRLSCAASGFTFSNYVMHWVRQAPGKGLEWVAVIWYDGSNKYYADSVKGRFTISRDNSKNTLYLQMNSLRAEDTAVYYCTREVYSSGWYDYGMDVWGQGTTVTVSS
VL: DIQMTQSPSSLSASVGDRVTITCRASQGIRNDLGWYQQKPGKAPKRLIYAASSLQSGVPSRFSGSGSGTEFTLTISSLQPEDFATYYCLQHYSYPRTFGQGTKVEVK

Biological target: T1, human ASGR-1 (on CHO-S cells)
Assay: competition, FACS, asialofetuin

| IC50 | Binder |
| --- | --- |
| 3.4 nM | B1 |
| 11 nM | B2 |
| 59 nM | B3 |
| 30 nM | B4 |
| 16 nM | B5 |

Biological target: T1, human ASGR-1 (on CHO-S cells)
Assay: competition, FACS, GalNAc-PAA

| IC50 | Binder |
| --- | --- |
| 11 nM | B1 |
| 54 nM | B2 |
| 73 nM | B3 |
| 87 nM | B4 |
| > 200 nM | B5 |
